Measurements: the RNAGym collection of RNA variant scans (doi:10.1073/pnas.2313332121)
Variants at the floor of the assay were thinned out.

B1: TPR 5TU (parent)
chain: GGAUCUUCUCGAUCUAACAAAAAAGACAAAUCUGCCACAAAGCUUGAGAGCAUCUUCGGAUGCAGAGGCGGCAGCCUUCGGUGGCGCGAUAGCGCCAACGUUCUCAACUAUGACACGCAAAACGCGUGCUCCGUUGAAUGGAGUUUAUCAUG

Variants of: B1
Experiment: polymerase ribozyme fitness, log enrichment relative to wild type (log ratio); higher = more active; in vitro selection for triplet polymerase activity
Method in brief: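 One round of in vitro selection, in triplicate, was applied to PCR-built, transcribed mutant libraries of each subunit of a heterodimeric triplet polymerase ribozyme. The steps were annealing with a biotinylated primer, partner subunit and triplets, incubation frozen at −7 °C, gel excision of extended constructs, streptavidin-bead capture and RT-PCR. Fitness is the logarithm, base 2, of genotype enrichment over wild-type enrichment from inverse-variance-weighted replicate averages of Illumina-sequenced inputs and outputs, keeping genotypes with ≥10 input reads and ≥1 read per output.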

Variant | polymerase ribozyme fitness (log ratio)
G25C A66G A106C | ≤ -4.2
G25U G42A C87G | ≤ -4.2
G25C U31C C32G U55A C75G C76U C79A A115G A120C C129A | ≤ -4.2
A26U G42C C93G A115U | ≤ -4.2
A26U A41G G62U | -1.6
A26U C35U U55A C96G G124A | ≤ -4.2
A26U C96U C108G U127A | ≤ -4.2
G25U G83A A119C | -2.78
G25C U56A U104C A106U A113G U139G U145A | ≤ -4.2
G25U G83A C95A A138U U139C | ≤ -4.2
A26U A49U G59U | ≤ -4.2
A26C G83A G126A A137G | ≤ -4.2
A26C C32A U53G U56A C75U U104A U111C A120G | ≤ -4.2
G25A U82C C105G A121U | -4.07
G25C U45A G59A U90G G100A C116G | ≤ -4.2
A26U C54A U56G C75A C93A U134A | ≤ -4.2
G25U C35U A49U G68A G81A U109G C118U G126C | ≤ -4.2
A26C U45G C63U C75U G80C G112C U144G | ≤ -4.2
A26U C85U | -1.63
G25U C87U C93G A138U | ≤ -4.2
A26U G48A | -3.27

Variant | polymerase ribozyme fitness (log ratio)
A26G G59A A89C C105U | ≤ -4.2
G25U G81A G94U A120U G141C | -3.76
A26U A40C G68C G71U U82A A119C C125A A150C | ≤ -4.2
G25U C85G C132G | ≤ -4.2
A26C U55A C75A G80C G94A C105A | ≤ -4.2
A26G C36A | ≤ -4.2
A26U A60G C69A A97U C114U U135C | ≤ -4.2
G25U G46C G50C A66G U90C G100C U104A U146C G152A | ≤ -4.2
A26U C85U C105U A142C | -3.69
G25U C99U A119C A120G | -3.26
G25A G48U U61G C96A A97G C132G | ≤ -4.2
G25C C72U A91G A119U U127A | ≤ -4.2
G25U A49C G68U G84A C87G A89U G94C C114A U148G | ≤ -4.2
A26U C36U U44A C57A G68C C118A U135G | ≤ -4.2
G25C G86A A122U | ≤ -4.2
A26U G46U | -3.87
G25C C132U | -3.65
A26C U82A A137G | -2.93
A26C C38G G68C C76U G84U U139G | ≤ -4.2
A26U C96U | -1.62
A26C G84C C108G G133U | ≤ -4.2

Variant | polymerase ribozyme fitness (log ratio)
A26C G84C C108G G133A | ≤ -4.2
G25U U148A | ≤ -4.2
G25U C32U A40U U56A G80C C85A C87A C116G U146G A150U | ≤ -4.2
G25A U55A | -2.09
G25U C35G A40G A47U A91C A107G G133C | ≤ -4.2
A26G C95U C96U | -4.16
A26C G83C | -2.82
G25U A49G G59U C99A | ≤ -4.2
A26U A39U G58A A66C C93U C149G | ≤ -4.2
A26U C118U | -0.616
A26U C118A | -2.33
G25U A52C U90C C95U U111A U135A U151G | ≤ -4.2
G25U U61G C99G A106G A107U A150G | ≤ -4.2
A26U C93U A122U | -2.76
G25C C79A G84U A97C | ≤ -4.2
A26U G46C U55A C93U C103A A106G C114A | ≤ -4.2
A24U U61A | -1.72
A26C G42A G46C A49G A52C C54U A91U C99U U109G C132U G140U | ≤ -4.2
A26C | -1.49
A26U | -1.21
A26G | -2.11

Variant | polymerase ribozyme fitness (log ratio)
A26C A73G C105U U146G | -3.66
A26U A29C A47G A49U G59C G65A G117C U139G | ≤ -4.2
A26G U33C C85U | ≤ -4.2
G25U G48A G84A C96G | -4.04
A26U C93U C118U C125A | ≤ -4.2
G25A A49G C96G | -3.91
A26U C35U G42C C108A A115C G133U U135A A142G U146C A147G | ≤ -4.2
G25U U55A C85A G140C | ≤ -4.2
G25C A60G G83C C96U G141U | -2.48
G25C A60G G86C C105U | -3.36
A26U A49U A137G | ≤ -4.2
A26C A52U A89C | -3.85
A26G G92U | -3.31
G25U A66U C93U G94U C125A G126U | ≤ -4.2
G25A U33A G83C A91U G94A A121U C131U | ≤ -4.2
A26G C32U U33G A49U A91U | ≤ -4.2
A26U C54U C95U | -1.76
A26U C93U | -2.67
A26U C51U C114U C129U | ≤ -4.2
A26U G34U G59C G62A C75G C93G U104A G152A | ≤ -4.2
